Laboratory results reported in the supplement of paper PMC10567573.

B1: SNAP91 (parent)
chain: FGGSFMAPSPSPVTPAQNNLLQPN
B2: KCNG1 (parent)
chain: LFVTVTAVNLSVSTLPSLREEEEQ

Variants of: B1
Assay: protein stability index of a GFP-peptide fusion (GPS, HEK-293T) (PSI 1-6); higher = more stable
Conditions: c terminus: a fixed tail appended
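Further: lentivirally expressed fusions sorted by FACS into six bins by GFP to DsRed ratio, PSI derived from sequencing read proportions per bin multiplied by bin number.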

Protein stability index: each site, then its substitutions
P12: I 1.94; K 1.47; L 1.61; M 2.62; N 2.31; Q 2.21; R 2.17; S 1.27; T 1.01; V 1.73; W 1.83; Y 2.09
T14: C 4.16; D 1.29; E 1.31; F 1.79; G 2.08; I 1.7; K 2.84; L 2.13; M 2.4; N 1.89; Q 2.43; R 1.54; V 2.2; W 1.95
P15: A 1.86; C 4.08; D 2.67; E 1.93; F 2.84; G 2.3; H 2.27; I 2.65; K 1.83; L 1.95; M 3.65; N 1.79; Q 2.27; R 2.4; S 2.19; T 2.01; V 2.12; W 1.6; Y 2.91
L21: R 2.88

Variants of: B2
Assay: as above
Conditions: c terminus: a fixed tail appended

Protein stability index: each site, then its substitutions
L1: A 1.78; C 2.1; D 4.52; E 4.32; F 1.95; G 3.23; H 3.62; I 2.27; K 3.84; M 1.98; N 4.05; P 4.33; Q 3.71; R 3.04; S 3.56; T 2.62; Y 1.97
F2: A 2.27; C 1.67; D 3.99; G 2.41; H 2.19; K 1.72; L 1.95; M 1.26; N 2.27; P 4.83; Q 2.09; R 2.5; S 1.99; T 1.25; Y 1.75
V3: A 2.67; C 2.65; D 4.92; E 4.93; F 1.65; G 3.53; H 3.75; I 2.67; K 3.71; L 1.53; M 1.75; N 4.51; P 5.3; Q 3.58; R 4.5; S 4.05; T 4.52; W 1.91; Y 1.92
T4: A 1.37; D 3.23; E 1.75; G 2.89; H 1.93; K 1.64; L 1.08; M 3.06; N 2.45; P 3.13; Q 2.71; S 1.49; Y 3.61
V5: A 2.42; C 2.1; D 4.51; E 4.46; F 2.68; G 3.99; H 3.52; I 3.56; K 3.75; L 2.2; M 2.18; N 3.64; P 4.91; Q 3.94; R 3.2; S 3.5; T 3.16; W 2.3; Y 2.14
T6: A 1.69; D 3.21; E 1.79; G 1.3; H 1.85; L 1.25; N 2.29; P 3.96; R 1.64; S 2.27
A7: C 2.9; D 2.89; E 3.03; G 1.5; H 2.5; I 4.2; K 3.01; M 2.03; P 1.8; Q 2.58; T 1.34; Y 3.4
V8: A 2.02; C 3.11; D 2.29; E 3.16; H 2.95; K 2.15; M 1.23; N 2.49; P 2.29; Q 1.85; R 2.51; S 2.77; T 2.09; Y 2.15
N9: D 1.45; H 3.18; P 1.73; Q 2.65; T 3.74; Y 2.02
L10: C 1.45; D 2.76; F 3.38; G 2.16; H 2.44; I 3.17; K 2.47; M 2.21; N 3.48; P 2.32; Q 3.77; R 3.45; S 2.21; T 2.03; V 1.9; W 2.88; Y 1.95
S11: E 1.72; G 1.73; H 1.72; M 3.64; P 2.02; R 2.63; Y 4.29
V12: A 2.71; C 2.79; D 1.71; E 2.19; F 2.17; G 1.45; H 1.53; K 2.44; L 3.1; M 1.47; P 1.6; Q 1.4; R 1.89; S 1.85; T 2.05; W 2.35; Y 2.08
S13: D 1.55; F 1.52; H 1.29; I 2.89; L 2.71; Q 1.78; Y 3.08
T14: D 1.52; E 1.99; H 2.56; K 1.77; M 2.01; P 2.61; R 4.33; S 1.36; V 2.13; W 2.87; Y 2.34
L15: C 2.81; D 3.09; G 1.72; I 1.36; K 1.62; M 2.51; P 2.48; Q 1.05; T 3.77; V 1.76
P16: C 1.65; D 1.19; K 2.5; M 3.14; N 3.87; R 1.75; S 2.05
S17: A 1.55; C 1.79; E 3.27; F 1.79; G 2.51; H 1.26; K 4.4; N 1.7; P 2.55; T 2.22; Y 1.51
L18: A 3.29; D 2.05; H 2.87; I 1.62; M 3.35; N 2.47; P 2.48; Q 2.23; R 1.57; S 3.17; T 3.48; V 2.17; W 3.02; Y 1.35
R19: C 2.09; D 2.32; E 1.43; F 3.41; H 1.41; K 3.36; L 2.85; N 1.96; Q 1.2; S 2.41; V 1.99
E20: C 3.25; D 1.67; F 3.08; K 1.62; P 1.7; S 3.18; T 3.53
E21: G 1.01; H 2.28; K 2.25; N 3.49; P 2.06; R 2.43; V 1.63; Y 3.39
E22: H 1.61; I 2.19; K 3.13; L 3.04; M 3.4; P 2.31; Q 3.16; S 1.89; T 2.14
E23: C 2.7; D 1.71; K 2.12; L 3.24; T 4.29; Y 2.93
Q24: D 2.28; E 1.37; K 1.74; L 1.02; M 2.66; N 2.31; S 2.44; Y 2.27
